Patent US7910550B2, “Human kunitz-type inhibitor with enhanced antifibrinolytic activity” (STC.UNM, priority 2004, dated 2011)

Key:
[1] = system: VEGF-induced angiogenesis; assay: VEGF-induced chorioallantoic membrane assay; format: in vivo; settings: preliminary studies
[2] = system: FGF-2-induced angiogenesis; assay: FGF-2-induced cornea pocket assay; format: in vivo; settings: preliminary studies
[3] = system: HT-1080 fibrosarcoma xenografts; format: in vivo, SCID mice
Protocol: The relative mRNA abundance in the snap-frozen tumor xenograft samples was assessed by oligonucleotide-based microarray analysis using an Affymetrix […] Human Genome U133 set (Affymetrix, Inc., Santa Clara, Calif.). This microarray consists of two array units of over one million unique oligonucleotide features covering over 39,000 transcript variants that represent 33,000 of the best characterized human genes. Additional information regarding these chips is available on-line at the Affymetrix, Inc. website. Biotinylated cRNA probe preparation, processing, hybridization and normalization were performed as described in the Affymetrix […] Expression Analysis Manual. Florescence images were captured using a gene array scanner (Affymetrix, Inc., Santa Clara, Calif.) and expression analysis was performed using GeneSpring v5.1 software. The wild-type TFPI-2 transfected (WT) tumor ratio of medians was normalized with that obtained from mock-transfected (MT) tumors.

[4] = TFPI-2 expressing tumors over mock-transfected tumors
[5] = human fibrosarcomas secreting wild-type human TFPI-2

B1: TFPI-2: Human tissue factor pathway inhibitor-2, 213 amino acid polypeptide with three tandem Kunitz-type domains (SEQ ID NO:1) (protein, listed as Homo sapiens)
chain: DAAQEPTGNNAEICLLPLDYGPCRALLLRYYYDRYTQSCRQFLYGGCEGNANNFYTWEACDDACWRIEKVPKVCRLQVSVDDQCEGSTEKYFFNLSSMTCEKFFSGGCHRNRIENRFPDEATCMGFCAPKKIPSFCYSPKDEGLCSANVTRYYFNPRYRTCDAFTYTGCGGNDNNFVSREDCKRACAKALKKKKKMPKLRFASRIRKIRKKQF
- anti-angiogenic effect [1]: potent and dose-dependent anti-angiogenic effect
- anti-angiogenic effect [2]: potent and dose-dependent anti-angiogenic effect
- Fold Change mRNA: Erythropoietin-producing hepatocyte kinase, EphB6 (NM_004445) [3]: −2.38 fold
- Fold Change mRNA: ADAM-TS2 (NM_021599) [3, 4]: −4.62 fold
- Fold Change mRNA: Alpha 1 chain of Type XII Collagen (AA669336) [3, 4]: +7.26 fold
- Fold Change mRNA: Aquaporin 1 (NM_000385) [3, 4]: +2.30 fold
- Fold Change mRNA: Biglycan (BC002416) [3, 4]: −2.29 fold
- Fold Change mRNA: Bone morphogenetic protein 4 (D30751) [3, 4]: +2.79 fold
- Fold Change mRNA: COUP-transcription factor (X16155) [3, 4]: −2.79 fold
- Fold Change mRNA: CUB domain-containing protein 1 (CDCP1) (NM_022842) [3, 4]: −18.70 fold
- Fold Change mRNA: Cell death regulator Aven (NM_020371) [3, 4]: −2.11 fold
- Fold Change mRNA: Chondroitin sulfate proteoglycan 2 (versican) (D32039) [3, 4]: −2.13 fold
- Fold Change mRNA: Collagen, type 1, alpha 1 (NM_000088) [3, 4]: +3.51 fold
- Fold Change mRNA: Cytidine deaminase (NM_001785) [3, 4]: +35.30 fold
- Fold Change mRNA: EEF1A2, Eukaryotic translation elongation factor 1 alpha 2 (NM_001958) [3, 4]: +6.85 fold
- Fold Change mRNA: EGF-TM7-latrophilin-related protein (NM_022159) [3, 4]: −2.92 fold
- Fold Change mRNA: EIF2Ak1, protein kinase, PKR (NM_002759) [3, 4]: +2.51 fold
- Fold Change mRNA: Endothelin receptor type A (AU118882, NM_001957) [3, 4]: −2.90 fold
- Fold Change mRNA: FLT, VEGFR1, Fms-related tyrosine kinase receptor (NM_002019) [3, 4]: −2.24 fold
- Fold Change mRNA: Fibronectin 1 (AJ276395) [3, 4]: −3.80 fold
- Fold Change mRNA: Formin like (FRL) (NM_005892) [3, 4]: −2.14 fold
- Fold Change mRNA: Helicase, Basic leucine zipper transcription factor-1 (NM_001186) [3, 4]: −2.11 fold
- Fold Change mRNA: Hemoglobin, epsilon 1, oxygen transport (NM_005330) [3, 4]: −7.63 fold
- Fold Change mRNA: Interleukin-8 (IL-8, C—X—CL8) (NM_000584) [3, 4]: −6.99 fold
- Fold Change mRNA: Junction plakoglobin (NM_021991) [3, 4]: −2.21 fold
- Fold Change mRNA: LIM domain binding 2 (NM_001290) [3, 4]: −5.20 fold
- Fold Change mRNA: LIM homeobox protein 6 (NM_014368) [3, 4]: +2.91 fold
- Fold Change mRNA: Ligase III, DNA (NM_013975) [3, 4]: +2.04 fold
- Fold Change mRNA: Lymphocyte antigen 75, gp200-MR6 (NM_002349) [3, 4]: +14.32 fold
- Fold Change mRNA: MAGE-A1, Melanoma antigen family A1 (NM_004988) [3, 4]: −2.95 fold
- Fold Change mRNA: Metastasis suppressor gene (NM_014751) [3, 4]: +2.06 fold
- Fold Change mRNA: N-Cadherin (M34064) [3, 4]: −2.13 fold
- Fold Change mRNA: Neuropeptide Y receptor (L01639) [3, 4]: −8.03 fold
- Fold Change mRNA: Nox 4, NADPH oxidase 4 (NM_016931) [3, 4]: −2.46 fold
- Fold Change mRNA: Oligophrenin 1 (NM_002547) [3, 4]: +2.95 fold
- Fold Change mRNA: PBX-2, Pre-B cell leukemia transcription factor-2 (NM_002586) [3, 4]: −2.75 fold
- Fold Change mRNA: Phenylalanine-tRNA synthetase (NM_006567) [3, 4]: +2.11 fold
- Fold Change mRNA: Phorbolin-like protein MDS019 (NM_021822) [3, 4]: +2.80 fold
- Fold Change mRNA: Protein tyrosine phosphatase, receptor type, U (U71075) [3, 4]: −2.48 fold
- Fold Change mRNA: Reversion-inducing-cysteine-rich protein with kazal motif (RECK) (NM_021111) [3, 4]: +2.64 fold
- Fold Change mRNA: S100 calcium-binding protein A4 (NM_002961) [3, 4]: +2.79 fold
- Fold Change mRNA: Tumor necrosis factor, alpha-induced protein 2 (NM_006291) [3, 4]: +2.98 fold
- Fold Change mRNA: Tumor protein D52-like 1 (NM_003287) [3, 4]: +2.10 fold
- Fold Change mRNA: Vascular endothelial growth factor C (U58111) [3, 4]: −2.41 fold
- Fold Change mRNA: Zinc finger protein 22 (KOX 15) (NM_006963, AA744771) [3, 4]: +29.27 fold
- Fold Change mRNA: Zinc finger protein 185 (LIM domain) (NM_006291) [3, 4]: +5.05 fold
- Fold Change mRNA: dermatopontin precursor (AI146848) [3, 4]: +2.87 fold
- Fold Change mRNA: enigma (LIM domain protein) (AW206786) [3, 4]: −2.32 fold
- Fold Change mRNA: fibrillin 1 precursor (AI264196) [3, 4]: −2.48 fold
- Fold Change mRNA: platelet derived growth factor alpha polypeptide (NM_002607) [3, 4]: +2.53 fold
- Fold Change mRNA: protein tyrosine kinase 7 (NM_002821) [3, 4]: +2.33 fold
- Fold Change mRNA: sortilin 1 (SORTI) (BE742268) [3, 4]: −4.21 fold
- Fold Change mRNA: thrombospondin 1 precursor (AI812030) [3, 4]: −3.39 fold
- Fold Change mRNA: voltage-gated potassium channel activity (AF052169) [3, 4]: +2.48 fold
- Fold Change mRNA: Chemokine (C—X—C motif), receptor 4 (fusin) (AF348491) ([3]; TFPI-2 expressing tumors over mock-transfected tumors, first of two values): −4.21 fold
- Fold Change mRNA: Chemokine (C—X—C motif), receptor 4 (fusin) (AJ224869) ([3]; TFPI-2 expressing tumors over mock-transfected tumors, second of two values): −27.40 fold
- IL-8 down regulated [3, 5]: 6.99 fold
- VEGF-C down regulated [3, 5]: 2.41 fold
- VEGF-R1 (FLT1) down regulated [3, 5]: 2.24 fold
